From article PMC1802567
Read-outs that look alike come from different tables or passages of the source.

Experiments:
p73β [1] = biological target: T1, p73β (UniProt O15350-2 1-499); experiment: EMSA
T1 sequence: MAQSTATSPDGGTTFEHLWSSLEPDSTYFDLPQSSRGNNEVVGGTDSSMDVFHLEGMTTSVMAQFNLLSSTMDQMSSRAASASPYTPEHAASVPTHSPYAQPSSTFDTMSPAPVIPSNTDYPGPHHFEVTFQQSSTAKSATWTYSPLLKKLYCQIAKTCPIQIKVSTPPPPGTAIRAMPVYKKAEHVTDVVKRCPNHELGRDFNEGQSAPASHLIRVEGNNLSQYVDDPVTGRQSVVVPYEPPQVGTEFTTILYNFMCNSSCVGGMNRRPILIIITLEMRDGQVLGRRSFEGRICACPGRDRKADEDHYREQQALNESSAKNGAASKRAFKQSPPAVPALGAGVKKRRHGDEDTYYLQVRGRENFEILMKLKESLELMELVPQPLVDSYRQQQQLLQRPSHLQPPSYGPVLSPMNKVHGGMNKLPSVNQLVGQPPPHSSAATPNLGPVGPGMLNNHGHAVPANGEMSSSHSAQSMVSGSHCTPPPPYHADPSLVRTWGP

p53 [2] = biological target: T2, p53 (UniProt P04637 1-393); experiment: EMSA
T2 sequence (P04637 whole entry): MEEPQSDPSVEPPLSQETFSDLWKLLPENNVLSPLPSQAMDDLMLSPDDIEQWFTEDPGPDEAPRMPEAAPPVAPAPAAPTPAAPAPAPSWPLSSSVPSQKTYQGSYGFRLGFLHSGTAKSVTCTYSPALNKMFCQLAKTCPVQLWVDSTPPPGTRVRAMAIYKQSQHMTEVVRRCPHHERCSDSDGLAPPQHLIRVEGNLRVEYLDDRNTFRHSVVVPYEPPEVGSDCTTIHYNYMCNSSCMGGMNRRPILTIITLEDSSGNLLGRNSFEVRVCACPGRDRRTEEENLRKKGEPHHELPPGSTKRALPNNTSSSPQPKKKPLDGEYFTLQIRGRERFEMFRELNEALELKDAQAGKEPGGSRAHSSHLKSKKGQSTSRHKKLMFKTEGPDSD

p73β [3] = biological target: T1, p73β; experiment: EMSA; remark: listed apart in the source
p73α = biological target: T3, p73α (UniProt O15350 1-636); experiment: EMSA
T3 sequence: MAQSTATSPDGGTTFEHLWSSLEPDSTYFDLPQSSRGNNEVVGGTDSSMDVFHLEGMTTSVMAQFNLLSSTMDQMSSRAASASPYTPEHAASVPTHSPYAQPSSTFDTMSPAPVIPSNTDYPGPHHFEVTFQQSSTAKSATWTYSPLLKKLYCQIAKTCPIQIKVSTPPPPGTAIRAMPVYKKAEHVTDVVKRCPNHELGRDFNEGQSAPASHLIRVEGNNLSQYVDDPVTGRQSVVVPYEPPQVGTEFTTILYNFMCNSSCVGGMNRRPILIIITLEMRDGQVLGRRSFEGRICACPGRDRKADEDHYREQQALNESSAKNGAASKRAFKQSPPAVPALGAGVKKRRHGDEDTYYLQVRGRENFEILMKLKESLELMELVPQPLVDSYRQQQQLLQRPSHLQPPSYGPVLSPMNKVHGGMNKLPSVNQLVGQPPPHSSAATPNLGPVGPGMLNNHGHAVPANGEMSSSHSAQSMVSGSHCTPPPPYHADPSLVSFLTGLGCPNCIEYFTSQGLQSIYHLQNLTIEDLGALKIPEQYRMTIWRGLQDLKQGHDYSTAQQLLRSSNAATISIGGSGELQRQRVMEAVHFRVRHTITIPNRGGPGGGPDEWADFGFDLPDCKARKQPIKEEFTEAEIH

p53 [4] = biological target: T2, p53; experiment: EMSA; remark: listed apart in the source
p73β [5] = biological target: T1, p73β; experiment: EMSA; remark: listed apart in the source
p73β(C262S) = biological target: T4, p73β(C262S) (UniProt O15350-2 1-499, C262S); experiment: DNA immunobinding assay
T4 sequence: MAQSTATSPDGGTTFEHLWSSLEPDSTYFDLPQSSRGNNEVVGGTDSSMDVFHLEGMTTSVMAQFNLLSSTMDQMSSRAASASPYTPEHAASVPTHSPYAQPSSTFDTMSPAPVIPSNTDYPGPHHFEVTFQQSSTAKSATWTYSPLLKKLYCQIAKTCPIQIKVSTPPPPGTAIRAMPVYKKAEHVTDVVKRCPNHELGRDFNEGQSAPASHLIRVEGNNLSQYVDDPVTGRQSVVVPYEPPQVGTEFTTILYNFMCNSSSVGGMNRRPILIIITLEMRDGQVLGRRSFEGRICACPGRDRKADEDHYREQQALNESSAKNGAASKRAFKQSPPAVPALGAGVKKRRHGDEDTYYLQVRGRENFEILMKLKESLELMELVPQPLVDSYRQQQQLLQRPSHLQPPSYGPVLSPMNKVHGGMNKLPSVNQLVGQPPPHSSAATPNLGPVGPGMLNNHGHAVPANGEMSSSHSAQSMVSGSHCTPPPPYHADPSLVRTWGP

ΔNp63β = biological target: T5, ΔNp63β (UniProt Q9H3D4-4 1-461); experiment: EMSA
T5 sequence: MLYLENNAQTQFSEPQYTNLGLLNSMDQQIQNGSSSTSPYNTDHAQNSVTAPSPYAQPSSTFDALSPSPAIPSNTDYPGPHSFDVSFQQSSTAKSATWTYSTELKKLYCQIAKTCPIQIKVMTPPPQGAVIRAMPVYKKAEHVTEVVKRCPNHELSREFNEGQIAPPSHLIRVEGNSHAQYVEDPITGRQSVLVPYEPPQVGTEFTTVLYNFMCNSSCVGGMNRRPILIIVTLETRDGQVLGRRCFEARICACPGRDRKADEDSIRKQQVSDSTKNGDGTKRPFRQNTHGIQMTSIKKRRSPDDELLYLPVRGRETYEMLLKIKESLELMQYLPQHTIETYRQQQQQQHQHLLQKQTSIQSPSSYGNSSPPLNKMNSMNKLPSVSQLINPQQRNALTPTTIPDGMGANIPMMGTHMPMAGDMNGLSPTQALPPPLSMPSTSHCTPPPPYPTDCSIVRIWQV

p73β [6] = biological target: T1, p73β; experiment: EMSA; remark: listed apart in the source

B1: PUMA (dsDNA)
DNA 1: AGCTAGTAGAGCCTGCAAGTCCTGACTTGTCCGCGTGCTGCAGC
DNA 2: GCTGCAGCACGCGGACAAGTCAGGACTTGCAGGCTCTACTAGCT
binding result (p73β [1]): binds

B2: PPC (dsDNA)
DNA 1: AGCTAGTAGAGCTGGCATGTCCCGACTTGTTAGCGTGCTGCAGC
DNA 2: GCTGCAGCACGCTAACAAGTCGGGACATGCCAGCTCTACTAGCT
binding result (p53 [2]): binds
binding result (p73β [3]): binds

B3: p21 5' site (dsDNA)
DNA 1: AGCTAGTAGAGCGAACATGTCCCAACATGTTGGCGTGCTGCAGC
DNA 2: GCTGCAGCACGCCAACATGTTGGGACATGTTCGCTCTACTAGCT
binding result (p73α): binds
binding result (p53 [4]): binds
binding result (p73β [5]): binds
binding signal (p73β(C262S)): 1.5 fold over background
binding result (ΔNp63β): binds

B4: PIG3 (dsDNA)
DNA 1: AGCTAGTAGAGCCAGCTTGCCCACCCATGCTCGCGTGCTGCAGC
DNA 2: GCTGCAGCACGCGAGCATGGGTGGGCAAGCTGGCTCTACTAGCT
binding result (p53 [4]): binds
binding result (p73β [6]): binds
